Consider six molecules from patent US7291332B2, “Inflammatory mediator antagonists” (SmithKline Beecham Corporation, priority 1998, dated 2007).

In assay [1] the target is T1, gp130-Fc (Homo sapiens, UniProt P40189).
T1 construct: DNA encoding the extracellular domain of human gp130 was amplified; made in house; host or cells: insect cells (Bac-to-Bac baculovirus) for gp130-Fc; E. coli BLR-DE3 for OSM
T1 sequence (P40189 23-619 limits assumed): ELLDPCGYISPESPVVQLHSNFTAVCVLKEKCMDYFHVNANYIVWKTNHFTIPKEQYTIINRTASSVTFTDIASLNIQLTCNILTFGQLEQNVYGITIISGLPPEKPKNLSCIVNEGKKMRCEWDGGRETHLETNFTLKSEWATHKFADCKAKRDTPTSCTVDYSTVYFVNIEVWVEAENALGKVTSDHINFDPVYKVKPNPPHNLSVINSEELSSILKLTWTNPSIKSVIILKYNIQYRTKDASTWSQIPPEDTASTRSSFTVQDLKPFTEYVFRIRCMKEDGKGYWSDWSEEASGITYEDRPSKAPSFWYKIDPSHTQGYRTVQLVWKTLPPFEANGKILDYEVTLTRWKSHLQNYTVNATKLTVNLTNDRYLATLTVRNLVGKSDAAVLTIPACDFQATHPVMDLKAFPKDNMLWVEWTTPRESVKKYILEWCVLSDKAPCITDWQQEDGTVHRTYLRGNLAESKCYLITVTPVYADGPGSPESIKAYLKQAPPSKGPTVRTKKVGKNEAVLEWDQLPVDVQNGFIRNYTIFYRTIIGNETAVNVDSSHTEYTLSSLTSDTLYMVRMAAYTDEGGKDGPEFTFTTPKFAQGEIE
In words: Competition of OSM-GST with plate-bound wild type OSM for binding to gp130-Fc (ELISA). The conditions noted are these: for inhibition: at the maximum concentration tested (10 μg/ml). As for the experimental part: Nunc Immunoplates (F6 Maxisorp, Life Technologies) were coated overnight (4° C.) with wild type OSM (produced according to Example 7a); 50 μl/well, 1 μg/ml in carbonate/bicarbonate buffer pH 9.4). Plates were washed (×6 in PBS 0.05% tween 20, using Skatron Plate washer), tapped dry and blocked to reduce non-specific binding (200 μl/well, 1% BSA/PBS). Following 1 h incubation (room temperature on a shaking platform) the plates were tapped dry and wild type (wt) or mutant OSM-GST from Example 9b added (50 μl/well, 20-0.002 μg/ml, titrated in 1%BSA/PBS). As a positive control polyclonal anti-human OSM antibody (R&D Systems) was also tested (20-0.02 μg/ml). A complex of gp130-Fc (Produced as below 300 ng/ml) and anti-human IgG alkaline phosphatase conjugate (1:500, Sigma) in 1% BSA/PBS (50 μl/well) was added immediately after the agents under test. Following a 5 h incubation (room temperature on a shaking platform) the plates were washed (×6) and developed using ELISA Amplification System (Life Technologies) as manufacturer's instructions and the OD measured at 490 nm. On each plate the total binding was determined by gp130-Fc/conjugate and OSM in the presence of 1% BSA/PBS, and non-specific binding by gp130-Fc/conjugate in absence of OSM, or conjugate binding to OSM in absence of gp130-Fc.
Mutant and wt OSM-GST were tested to obtain IC50 in 3-6 experiments. The mean OD in the presence of OSM and gp130-Fc in the absence of competing ligand (i.e., total binding) was 1.157 (range 0.825-1.807) and the non specific binding was less than 0.08.

The subject of assay [2] is HepG2 B6 cells (STAT-sPAP reporter). The assay is described as follows: OSM-GST mutant driven sPAP production in HepG2 B6 assay. In kind it is cell-based, human. The conditions noted are these: for 'Potency': relative to wild type, from Mean %. As for the experimental part:
HepG2 B6 cells were plated into 96 well plates to a final concentration of 3×10^4 cells per well in 100 μl of media (DMEM (Sigma), 10% HI FCS, 1% non-essential amino acids, 2 mM Glutamine, 500 μg ml^−1 G418, (all from Life Technologies)). Cells were allowed to equilibrate for 48 hours. Putative anti-OSM solid compounds were made up to a stock dilution of 20 mM in DMSO and serially diluted 1:3 in DMSO. This was then further diluted in HepG26B assay media, this is as above media but with 1% heat inactivated FCS, low alkaline phosphatase activity (Life Technologies) substituted for 10% HI FCS. Compounds were diluted 1:3 from a top concentration of […] to a final concentration of 0.09 μM in a final concentration of 1% DMSO. (That is 200, 66.67, 22.22, 7.41, 2.47, 0.82, 0.27, 0.09 and 0 μM). The old media was removed from the wells and replaced with diluted compound also containing 2 ng ml^−1 OSM (R&D Systems), cells were incubated for a further 20 hours. Each dilution was performed in triplicate. 20 μl of media was removed from each well and assayed for sPAP activity using pNPP (p-Nitrophenyl phosphate; Sigma), as a substrate. Endogenous alkaline phosphatase is blocked with L-homoarginine. Optical density of substrate is read at 405-650 nm. Concentration of compound is plotted against OD as a measure of sPAP produced and can be analysed to determine IC50 values.
The assay described in Example 7b above was employed. OSM-GST mutants were diluted to a concentration of 100 ng ml^−using the known concentration of intact OSM mutants generated in Example 9b. A wild type OSM-GST was included for control purposes. Dilutions were made in HepG2 B6 media with 1% heat inactivated FCS, low alkaline phosphatase activity. Serial 1:3 dilutions were then made. (100; 33.33; 11.11; 3.7; 1.23; 0.4 ng ml^−1). 3×10^4 HepG2 B6 were dispensed into individual well of a 96 well plate in 100 μl of media. Cells were allowed to equilibrate for 48 hours. Media was then removed and replaced with 100 μl of diluted OSM-GST mutant. Cells were incubated for a further 20 hours. Each dilution was performed in triplicate. 20 μl of media was removed and assayed for sPAP using pNPP as a substrate. Endogenous ALP was blocked with L-homoarginine. O.D. was read at 405-650 nm. The experiment was repeated twice.

Entries after “also recorded” stand apart in the source; their conditions may differ.

B1: (13) Q20A: OSM-GST fusion, alanine for Gln 20 (protein)
chain: AAIGSCSKEYRVLLGQLQKATDLMQDTSRLLDPYIRIQGLDVPKLREHCRERPGAFPSEETLRGLGRRGFLQTLNATLGCVLHRLADLEQRLPKAQDLERSGLNIEDLEKLQMARPNILGLRNNIYCMAQLLDNSDTAEPTKAGRGASQPPTPTPASDAFQRKLEGCRFLHGYHRFMHSVGRVFSKWGESPNRSRR
modifications: left off: a dimerising Fc or GST; large carriers; small tags and cut ends
B1: in assay [1], the “ability to compete with wt OSM for gp130 binding” value (“ability to compete with wt OSM” below) is recorded as “substantial decrease” and the inhibition worked out at 66±2.3%. Besides, in assay [2], the “driving sPAP production” value is on record as “less effective at driving sPAP production; also recorded: didn't drive sPAP at all” and the “'Potency'” value is recorded as “NONE”.

B2: (22) N123A: OSM-GST fusion, alanine for Asn 123 (protein)
chain: AAIGSCSKEYRVLLGQLQKQTDLMQDTSRLLDPYIRIQGLDVPKLREHCRERPGAFPSEETLRGLGRRGFLQTLNATLGCVLHRLADLEQRLPKAQDLERSGLNIEDLEKLQMARPNILGLRANIYCMAQLLDNSDTAEPTKAGRGASQPPTPTPASDAFQRKLEGCRFLHGYHRFMHSVGRVFSKWGESPNRSRR
modifications: left off: a dimerising Fc or GST; large carriers; small tags and cut ends
As to B2, the “ability to compete with wt OSM” value in assay [1] is “substantial decrease”. Further, in assay [2], the “Expt 1 EC50” value was determined as 0.0379 mg/L, the “Expt 2 EC50” value is 0.0497 mg/L and the “'Potency'” value is given as “LESS (>120% Less potent than wild type)”.

B3: (20) G120A: OSM-GST fusion, alanine for Gly 120 (protein)
chain: AAIGSCSKEYRVLLGQLQKQTDLMQDTSRLLDPYIRIQGLDVPKLREHCRERPGAFPSEETLRGLGRRGFLQTLNATLGCVLHRLADLEQRLPKAQDLERSGLNIEDLEKLQMARPNILALRNNIYCMAQLLDNSDTAEPTKAGRGASQPPTPTPASDAFQRKLEGCRFLHGYHRFMHSVGRVFSKWGESPNRSRR
modifications: left off: a dimerising Fc or GST; large carriers; small tags and cut ends
Regarding B3, the “ability to compete with wt OSM” value in assay [1] was “substantial decrease”. Also, in assay [2], the “driving sPAP production” value was “less effective at driving sPAP production; also recorded: didn't drive sPAP at all” and the “'Potency'” value was “NONE”.

B4: (6) L13A: OSM-GST fusion, alanine for Leu 13 (protein)
chain: AAIGSCSKEYRVALGQLQKQTDLMQDTSRLLDPYIRIQGLDVPKLREHCRERPGAFPSEETLRGLGRRGFLQTLNATLGCVLHRLADLEQRLPKAQDLERSGLNIEDLEKLQMARPNILGLRNNIYCMAQLLDNSDTAEPTKAGRGASQPPTPTPASDAFQRKLEGCRFLHGYHRFMHSVGRVFSKWGESPNRSRR
Turning to B4, the “ability to compete with wt OSM” value in assay [1] is “substantial decrease”. In assay [2], the “Expt 1 EC50” value turned out to be 0.0657 mg/L, the “Expt 2 EC50” value was 0.0549 mg/L and the “'Potency'” value was “LESS (>120% Less potent than wild type)”.

B5: (23) N124A: OSM-GST fusion, alanine for Asn 124 (protein)
chain: AAIGSCSKEYRVLLGQLQKQTDLMQDTSRLLDPYIRIQGLDVPKLREHCRERPGAFPSEETLRGLGRRGFLQTLNATLGCVLHRLADLEQRLPKAQDLERSGLNIEDLEKLQMARPNILGLRNAIYCMAQLLDNSDTAEPTKAGRGASQPPTPTPASDAFQRKLEGCRFLHGYHRFMHSVGRVFSKWGESPNRSRR
modifications: left off: a dimerising Fc or GST; large carriers; small tags and cut ends
For the molecule B5, in assay [1], the “ability to compete with wt OSM” value was “substantial decrease”. Moreover, in assay [2], the “Expt 1 EC50” value stood at 0.0302 mg/L, the “Expt 2 EC50” value came out at 0.0362 mg/L and the “'Potency'” value was “EQUAL (80-120% Equal potency)”.

B6: (9) Q16A: OSM-GST fusion, alanine for Gln 16 (protein)
chain: AAIGSCSKEYRVLLGALQKQTDLMQDTSRLLDPYIRIQGLDVPKLREHCRERPGAFPSEETLRGLGRRGFLQTLNATLGCVLHRLADLEQRLPKAQDLERSGLNIEDLEKLQMARPNILGLRNNIYCMAQLLDNSDTAEPTKAGRGASQPPTPTPASDAFQRKLEGCRFLHGYHRFMHSVGRVFSKWGESPNRSRR
modifications: left off: a dimerising Fc or GST; large carriers; small tags and cut ends
Take B6: in assay [1], the “ability to compete with wt OSM” value is given as “substantial decrease” and the inhibition is given as 15±8%. Besides, in assay [2], the “driving sPAP production” value is listed as “less effective at driving sPAP production; also recorded: didn't drive sPAP at all” and the “'Potency'” value is “NONE”.
